The text below walks through data of patent US20170212131A1 (NEW YORK UNIVERSITY, published 2017).

Experiment [1] addresses T1, Tau-phospho-serine 396/404 peptide.
T1 construct: Synthetic 30-residue peptide (Keck Foundation, Yale University) used for panning, ELISA and Biacore
Nature of the experiment: SPR (Biacore 2000), antibody immobilized, peptide as analyte. The protocol:
(§1) Briefly, scFv235/antibody (10 μg/ml) was diluted in 10 mM sodium acetate, pH 5.0, and was immobilized on a separate CMS sensor chip with an amine coupling kit (7 min contact time at 5 μl/min flow rate). Unreacted surface-bound material was blocked with ethanolamine. One channel of each sensor chip, prepared in the same way without scFv235 or antibody, was used to monitor the nonspecific binding of the peptide. All measurements were done with HBS-EP buffer (10 mM HEPES at pH 7.4, 150 mM NaCl, 3.4 mM EDTA and 0.005% surfactant P20) at flow rate of 5 μl/min at 25° C. After each measurement, the chip surface was regenerated with 10 μl of a buffer containing 500 mM NaCl and 0.1M glycine HCl, pH 8.0. […] Table 5 and Table 6 summarize the kinetics and specificity of binding of the 6B2G12 antibody and scFv235.
In general terms: Surface plasmon resonance follows binding to a sensor surface in real time, without labels.

Experiment [2] has the same target. The description is as above. The protocol: as §1
The source holds these as a separate data set.

Experiment [3] shares this target. As to the kind of experiment: SPR (Biacore 2000), scFv immobilized, peptide as analyte. How it is done:
as §1

The target is the same in experiment [4]. Described as above. How it is done: as §1
The source holds these as a separate data set.

The target is the same in experiment [5]. As to the kind of experiment: ratio of association/dissociation from SPR.
The target is the same in experiment [6]. As to the kind of experiment: ratio of SPR KD values.

B1: antibody 6B2G12 (antibody, V domains shown)
VH: EVQLQQSGPELVKPGASVKISCKTSEYTFTEYTKHWVKQSHGKSLEWIGSINPNNGDTYYNQKFTDKATLTVDKSSTTASMELRSLTFEDSAVYYCAMGDSAWFAYWGQGTLVTVS
VL: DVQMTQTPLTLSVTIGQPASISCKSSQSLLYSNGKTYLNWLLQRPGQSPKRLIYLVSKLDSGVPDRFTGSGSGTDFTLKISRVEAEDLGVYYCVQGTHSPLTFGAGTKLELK
notes: Monoclonal antibody from hybridoma clone 6B2G12, whole antibody (about 150 kDa); also called parent antibody; parental antibody
On to B1, for which, in experiment [1], the Kd is 0.000395 µM. Moreover, in experiment [2], the Kd was determined as 0.000395 µM, the koff worked out at 0.00146 s⁻¹ and the kon was 3.69e+06 M⁻¹ s⁻¹.

B2: scFv235 (scFv, not shown: small tags and cut ends)
scFv: ELDVVMTQTPLTLSVTIGQPASISCKSSQSLLYSNGKTYLNWLLQRPGQSPKRLIYLVSKLDSGVPDRFTGSGSGTDFTLKISRVEAEDLGVYYCVQGTHSPLTFGAGTKLELKSSGGGGSGGGGGGSSRSSLEVQLQQSGPELVKPGASVKISCKTSEYTFTEYTKHWVKQSHGKSLEWIGSINPNNGDTYYNQKFTDKATLTVDKSSTTASMELRSLTFEDSAVYYCAMGDSAWFAYWGQGTLVTVSA
notes: Made in E. coli from the phage display library of hybridoma 6B2G12; also called the scFv; His-tagged scFv235
For the molecule B2, in experiment [3], binding was put at a Kd of 0.994 µM, the koff was 0.0039 s⁻¹ and the kon was determined as 3930 M⁻¹ s⁻¹. This molecule came in with a Kd in experiment [4] of 1.04 µM. The “fold lower affinity than antibody 6B2G12” value in experiment [5] is approximately 2510 fold. Moreover, in experiment [6], the “selectivity for the phosphorylated peptide (SEQ ID NO:28) relative to the non-phosphorylated peptide (SEQ ID NO:27)” value was determined as 3900 fold.

As a reminder, the Kd is a measure of binding affinity in units of concentration. A word on the koff: it is the first-order rate constant of dissociation. Read a low koff as a long-lived complex. As a reminder, the kon is the second-order rate constant of association. The low end stands for slower complex formation, the high end for faster complex formation.
